The target in experiment [1] is T1, SARS-CoV-2 Wuhan-Hu-1 RBD (SARS-CoV-2, Wuhan-Hu-1 (GenBank …, UniProt P0DTC2)). The experiment can be described thus: BLI. Conditions: both partners purified.
The target in experiment [2] is T1, SARS-CoV-2 Wuhan-Hu-1 RBD. The experiment can be described thus: cell-based or functional assay.

B1: JR050 (antibody, V domains shown)
VH: QVQLVQSGAEVKKPGASVKVSCKTSGDTFTNHYMHWVRQAPGQGLEWMGIINPSAGSTSYAQKFQGRVTMTRDTSTSTVYMELSSLRSEDTAVYYCARDIVFIPALDAFDIWGQGTMVTVSS
VL: EIVLTQSPATLSLSPGERATLSCRASQSVSSYLAWYQQKPGQAPRLLIYDTSNRATGIPARFSGSGSGTDFTLTISSLEPEDFAVYYCQQRRNWPPMYTFGQGTKLEIK
Consider B1, for which the binding result in experiment [1] is reported as “binds”. For the same molecule, the “neutralisation IC50, Wuhan-Hu-1 pseudovirus” value (from here on “neutralisation IC50”) in experiment [2] was greater than 1 µg/mL.

B2: JR060 (antibody, V domains shown)
VH: QVQLVQSGAEVKKPGASVRVSCKASGYTFNNYGIIWVRQAPGQGLEWVGWISAYNANTNYAQKLQGRVSMTTDTPTSTVYMELRSLRSDDTAVYYCASGLGAAGTEPPSDYWGQGTLVTVSS
VL: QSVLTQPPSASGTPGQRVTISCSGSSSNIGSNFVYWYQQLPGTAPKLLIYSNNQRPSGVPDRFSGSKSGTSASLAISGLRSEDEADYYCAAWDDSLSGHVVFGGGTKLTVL
Take B2: the binding result in experiment [1] is recorded as “binds”. In experiment [2], the “neutralisation IC50” value was greater than 1 µg/mL.

B3: JR318 (antibody, V domains shown)
VH: QVQLVQSGAEVKSPGASVKVSCKASGYTFTSYDINWVRQATGQGLEWMGWMNPNSGNTDYAQKFQGRVTMTRDTSISTAYMELSSLRSEDTAIYYCARRSGYYNFGVGTRTNYYYYGMDVWGQGTTVTVSS
VL: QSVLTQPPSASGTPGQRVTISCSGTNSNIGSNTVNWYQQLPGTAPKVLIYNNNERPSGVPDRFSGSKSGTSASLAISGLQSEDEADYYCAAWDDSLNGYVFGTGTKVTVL
Regarding B3, the binding result in experiment [1] is “binds”. The “neutralisation IC50” value in experiment [2] turned out to be 0.00652 µg/mL.

B4: JR316 (antibody, V domains shown)
VH: QVQLVQSGAEVKKPGSSVKVSCKASGGSFSTHGISWVRQAPGQGLEWMGGIIPISGRANYAQNFQGRVTITADESTKTAYMELSSLRSEDTAVYYCARDDRFCDTTKCYGLWFDPWGQGTLVTVSS
VL: DIQMTQSPSSLSASVGDRVTITCRASQSISTYLNWYQQKPGKAPKVLIYAASTLQSGVPSRFSGSGSGTDFTLTISSLQPEDFATYYCQQTYSSPRAFGQGTKVEIK
Regarding B4, in experiment [1], the binding result was “binds”. In addition, the “neutralisation IC50” value in experiment [2] came out at 0.0108 µg/mL.

B5: JR206 (antibody, V domains shown)
VH: EVQLVQSGAEVKKPGESLKISCKGSGFNFSRYWIGWVRQMPGKGLEWMGIIYLGDSDTTYSPSFQGQVTISADKSISTAYLQWSSLKASDTAMFYCATRSGYFYGYETWGQGTLVTVSS
VL: SYELTQPPSVSVAPGKTAKITCGGNNIGSKTVHWYQQRPGQAPVLVVYDNRDRPSGIPERFSGSNSGNTAALTISRVEAGDEADYYCQVWDSSSDHYVFGTGTKVTVL
As to B5, the binding result in experiment [1] is recorded as “binds”. Further, the “neutralisation IC50” value in experiment [2] amounted to 0.137 µg/mL.

B6: JR053 (antibody, V domains shown)
VH: QVQLVQSGAEVKKPGASVKVSCKASGYTFTSHYMHWVRQAPGQGLEWMGIINPSGGSTSHAQKFQGRVTLTSDTSTSTVYMELSSLRSEDTAVYYCARDLSFIPSIAWNCGYWGQGTLVTVSS
VL: QSALTQPASVSGSPGQSITISCTGTSSDVGGYNYVSWYQQHPGKAPKLMIYDVSDRPSGVSNRFSGSKSGNTASLTISGLQAEDEADYYCSSYTSSSSYVFGTGTKVTVL
In the case of B6, the binding result in experiment [1] was “binds”. Also, the “neutralisation IC50” value in experiment [2] is greater than 1 µg/mL.

B7: JR054 (antibody, V domains shown)
VH: QLQLQESGPRLMKPSETLSLTCSVSGGSISRSHYYWGWIRQPPGKGLEWIGSIYYNGSTYYNPSLRSRVTISVDTTKNQFSLKLSSVTAADTAEYYCARPGPSYYDRSGYNRAEYFQHWGQGTLVTVSS
VL: IRMTQSPSSLSASVGDRVTITCQASQDISNYLNWYQQKPGKAPKLLIYDASNLETGVPPRFSGSGSGTDFTFTISSLQPEDFATYSCQQYDNLPLTFGGGTKVEIK
Regarding B7, in experiment [1], the binding result is “binds”. The “neutralisation IC50” value in experiment [2] worked out at 0.0513 µg/mL.

B8: JR099 (antibody, V domains shown)
VH: EVQLVESGGGLVQPGGSLRLSCAASGFTFSDYDMHWVRQVRGKGLEWLSIIGTAGDTYYPDSVKGRFTISRENAKNSLYLQMNSLRVGDTGVYYCARDRASTSGTDGMDVWGQGTTVTVSS
VL: DIQLTQSPSSLSASVGDRVTITCRASQSISRYLNWYQQRPGKAPKLLIYAAFTLESGVPSRFSGSGSGTDFTLTISSLQAEDFATYHCQQSYSTSALTFGGGTKVEIK
As for B8, the binding result in experiment [1] was “binds”. In experiment [2], the “neutralisation IC50” value is 0.0463 µg/mL.

B9: JR317 (antibody, V domains shown)
VH: QVQLVESGGGVVQPGKSLRLSCAASGFTFSSYGMHWVRQAPGKGLEWVAVIWYDGSNKYYADSVKGRFTISRDNSKSTLYVQMNSLRAEDTAVYYCARVRTIFRPLDYMDVWGKGTTVTVSS
VL: SYELTQPPSVSVAPGQTARITCGGNNIGSKSVHWYQQKPGQAPVLVVYDDSARPSGIPERFSGSNSGNAATLTISRVEAGDEADYYCQVWDRDYSSDHLWVFGGGTKLTVL
Consider B9, for which, in experiment [1], the binding result is reported as “binds”. For the same molecule, in experiment [2], the “neutralisation IC50” value is 0.0344 µg/mL.

B10: JR189 (antibody, V domains shown)
VH: EVQLVESGGGLIQPGGSLRLSCAASGFNVNSNYINWVRQAPGKGLEWVSVIYSSGKTYFADSVKGRFTISRDNSKNTLYLQMNILRAEDTAVYYCATTTTVTPIWGQGTLVTVSS
VL: DIQMTQSPSALSASVGDRVTFTCRASQDIRNYLGWYQQKPGEAPKLLVYAASSLQSGVPSRFSGSGSGTDFTLTISSLQPEDFATYYCLQDYNYPWTFGQGTKVEIK
In the case of B10, the binding result in experiment [1] is “binds”. In addition, the “neutralisation IC50” value in experiment [2] came to 0.0077 µg/mL.

B11: JR186 (antibody, V domains shown)
VH: EVQLLESGGGLIPPGGSLRLSCAASGFTFSSYAMSWVRQAPGKGLEWVSGISGSGTDTDEGDSVKGRFTISRDNSKNTLWLQIHTLRVEDTAIYYCAKASRGYVSNFDYFDRWGQGTLVTVSS
VL: SYELTQPPSVSVAPGETAKITCGGDNIGTKSVHWYLQKAGQAPVLVISDDSNRPSGIPERFSGSNSGNTATLTINRVEGGDEADYYCQVWTSFGAGTRVTVI
For the molecule B11, the binding result in experiment [1] is “binds”. In experiment [2], the “neutralisation IC50” value is 0.0742 µg/mL.

B12: JR081 (antibody, V domains shown)
VH: QVQLVQSGAEVKKPGASVKVSCKASGYIFTAYYMHWVRQAPGQGLEWMGWINPMSGATNYAQRFQGRVTMTRVTMTRDTSITTAYMELSRLRSDDTAVYYCARVNHIVGVTSSDPVYGMDVWGQGTTVTVSS
VL: QSALTQPASVSGSPGQSITISCTGTSSDVGGYKYVSWYQQHPGKAPKLMIYEVSNRPSGVSSRFSGSKSGYTASLTISGLQAEDEADYYCSSYTNSPTLFYVFGTGTKVTVL
B12: in experiment [1], the binding result is reported as “binds”. For the same molecule, the “neutralisation IC50” value in experiment [2] worked out at 0.00347 µg/mL.

B13: JR162 (antibody, V domains shown)
VH: EVQLLESGGGLVQQGGSLRLSCAASGFTFSGHAMSWVRQAPGEGLEWVSGISDGGGSTYYADSVRGRFTISRDNSKNTLYLQMNSLRAEDTAVYYCARRGGYCTNTICYTRYYYMDVWGKGTTVTVSS
VL: DIQMTQSPSSVSASVGDRVTITCRSSQDISSWLAWYQQKPGKAPKLLIFAASSLQSGVPSRFSGSGSGTDFTLTISSLQPEDFATYYCQQANSFPLTFGGGTKVEI
Take B13: in experiment [1], the binding result is recorded as “binds”. Besides, the “neutralisation IC50” value in experiment [2] turned out to be 0.00455 µg/mL.

B14: JR209 (antibody, V domains shown)
VH: EVQLLESGGGLVQPGQSLRLYCAASGFTFSSHGMSWVRQAPGKGLEWVSSISSSGGRTYDADSVKGRFTISRDNSENTVYLQMNSLRVADTAVYYCVKENGPHRWSGEVHGMDVWGQGTTVTVSS
VL: QSVLTQPPSVSGAPGQRVTISCTGSSSNIGTGYDVHWYQHLPGTAPKLLIYDNNNRPSGVPDRFSGSKSATSASLAITGLQAEDEGDYYCQSYDTSLSGLAFGGGTKLTVL
Regarding B14, the binding result in experiment [1] is given as “binds”. Also, the “neutralisation IC50” value in experiment [2] was 0.0901 µg/mL.

B15: JR202 (antibody, V domains shown)
VH: VQLVESGGGVVQPGRSLRLSCAASGFTFTTYTLHWVRQAPGKGLEWVAVISYDGNNKYYADSVKGRFTISRDDSKNTLYVQMNSLRAEDTAVYYCARSIGYYTGVDYWGQGTLVTVSS
VL: NFMLTQPHSVSESPGKTVTISCTGSSGSIAINYVQWYQQRPGSAPITVIYEDNQRPSGVPDRFSGSIDSSSNSASLTISGLKTEDEADYYCQTYHSSTWVFGGGTKLTVL
As for B15, in experiment [1], the binding result was “binds”. For the same molecule, in experiment [2], the “neutralisation IC50” value turned out to be 0.00354 µg/mL.

B16: JR065 (antibody, V domains shown)
VH: VQLVESGGGVAQPGRSLRLSCAASGFTFSHYGMHWVRQGPGKGLEWVAGISFDGSDKYYADSVKGRFTISRDNSKNTFYLQMNSLRTDDTAVFYCAKQGFGYGSGWYYFDYWGQGTLVTVSS
VL: IRMTQSPSSLSASVGDRVTITCQASQDISKYLNWYQQRPGKAPKPLIYDASNLETGVPSRFSGSGSGTDFTLTITNLQPEDIATYYCQQYDNVPSVTFGQGTRLEIK
As for B16, the binding result in experiment [1] was “binds”. The “neutralisation IC50” value in experiment [2] is greater than 1 µg/mL.

B17: JR057 (antibody, V domains shown)
VH: VQLVESGGGVVQPGRSLRLSCAASGFTFSSYAMHWVRQAPGKGLEWVALISYDGNNKYYADSVKGRFTVSRDNSKNTLFLQMNSLRAEDTAVYYCARDNEVSAAFDFWGQGTMVTVSS
VL: EIVLTQSPGTLSLSPGERATLSCRASQSLSSTYLAWYQHKPGQAPRLLIYAASSRATDIPDRFSGSGSGTDFTLTISRLEPEDFAVYYCQQYGGSPMCSFGQGTKLEIK
In the case of B17, the binding result in experiment [1] is reported as “binds”. Besides, the “neutralisation IC50” value in experiment [2] stood at 0.0142 µg/mL.

B18: JR312 (antibody, V domains shown)
VH: QVQLVQSGAEVKKPGSSVKVSCKASGAKPSGVSFSSYAFNWVRRAPGQGLEWVGGIIPIFGPANYAQKFQGRVTITADESTSTAYMELSSLSSEDTAIYYCARERYCNSPDCYSWERGDFDVWGQGTMVTVSS
VL: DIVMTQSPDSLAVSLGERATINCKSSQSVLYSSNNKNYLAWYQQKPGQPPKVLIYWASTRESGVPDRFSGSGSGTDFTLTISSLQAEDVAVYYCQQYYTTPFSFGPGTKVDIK
For B18, the binding result in experiment [1] is given as “binds”. Besides, the “neutralisation IC50” value in experiment [2] amounted to 0.0271 µg/mL.

B19: JR052 (antibody, V domains shown)
VH: QVQLVQSGAEVKKPGASVKVSCEASGYTFTTYHMHWVRQAPGQGLEWMGIINPSRGSANYAQKFQGRVTMTRDTSTRTVYMELSSLRSEDTALYYCARDPNYYDSSGHKIEYFQHWGQGTLVTVSS
VL: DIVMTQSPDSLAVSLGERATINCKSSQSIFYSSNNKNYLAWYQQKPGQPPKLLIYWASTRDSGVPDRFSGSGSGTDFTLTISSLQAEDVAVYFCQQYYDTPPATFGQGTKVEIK
With B19, in experiment [1], the binding result is “binds”. In experiment [2], the “neutralisation IC50” value was 0.0239 µg/mL.
